Drawing on paper PMC6742228, this text covers HA-pseudovirus neutralization titer (IC95), 293T cells and Plaque reduction titer (IC50), replicating virus on MDCK cells for three substances.

The test deals with A/Puerto Rico/8/1934 (H1) HA (influenza A virus A/Puerto Rico/8/1934 (H1N1)) (UniProt P03452).

The substance MAb FI6 (antibody) gave an HA-pseudovirus neutralization titer (IC95), 293T cells of 0.11 µg/mL and a Plaque reduction titer (IC50), replicating virus on MDCK cells of 3.7 µg/mL.
Take MAb CR6261 (antibody): the HA-pseudovirus neutralization titer (IC95), 293T cells worked out at 0.09 µg/mL.
MAb C179 (antibody) registered an HA-pseudovirus neutralization titer (IC95), 293T cells of 0.31 µg/mL and a Plaque reduction titer (IC50), replicating virus on MDCK cells of 27.7 µg/mL.
